Consider 15 variants from the RNAGym collection of RNA variant scans (doi:10.1093/molbev/msab373).

The labels stand for the following.
B1: Azoarcus group I ribozyme (parent)
chain: GUGCCUUGCGCCGGGAAACCACGCAAGGGAUGGUGUCAAAUUCGGCGAAACCUAAGCGCCCGCCCGGGCGUAUGGCAACGCCGAGCCAAGCUUCGGCGCCUGCGCCGAUGAAGGUGUAGAGACUAGACGGCACCCACCUAAGGCAAACGCUAUGGUGAAGGCAUAGUCCAGGGAGUGGCGAAAGUCACACAAACCGG

This data set covers variants of B1. The data set can be described thus: reverse-splicing fitness (ratio to wild type); higher = more active; in vitro selection; Mg2+ level not given. Summed up:
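An in vitro group I ribozyme library with randomized positions was T7-transcribed and gel-purified. In triplicate, 10 pmol RNA in EPPS pH 7.5 was reacted with 50 pmoles of a 30-nt RNA substrate for 1 h at 37 °C across several added MgCl2 levels (1–48 mM), then stopped with EDTA. Products were reverse transcribed from a substrate-complementary primer, PCR-amplified and sequenced (HiSeq 4000). Fitness is a variant's read proportion after selection over that before, normalised to wild type.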
Turning to GUGCCUUGCGCCGGGAAACCACGCAAGGGAUGGUGUCAAAUUCGGCGAAACCUAAGCGCCCGCCCGGGCGUAUGGCAACGCCGAGCCAAGCUUCGGCGCCUGCGCCGAUGAAGGUGUAGCGACUAGACGGCACCCACCUAAGGCAAACGCUAUGGUGAAGGCAUAGUCUAGGGAGGGGCGAAAGUCACACAAACCGG [A120C C169U U176G], the reverse-splicing fitness is 0.0174.
As for GUGCCUUGCGCCGGGAAACCACGCAAGGGAUGGUGUCAAAUUCGGCGAAACCUAAGCGCCCGCCCGGGCGUAUGGCAACGCGGAGCCAAGCUUCGGCGCCUGCGCCGAUGAAGGUGUAGUGACUAGACGGCACCCACCUAAGGCGAACGUUAUGGUGAAGGCAUAGUCAAGGGAGUGGCGAAAGUCACACAAACCGG [C82G A120U A145G C150U C169A], the figure is 0.00606.
As for GUGCCUUGCGCCGGGAAACCACGCAAGGGAUGGUGUCAAAUUCGGCGAAACCUAAGCGCCCGCCCGGGCGUAUGGCAACGCAGAGCCAAGCUUCGGCGCCUGCGCCGAUGUAGGUGUAGGGACUAGACGGCACCCACCUAAGGCUAACGUUAUGGUGAAGGCAUAGUCUAGGGAGAGGCGAAAGUCACACAAACCGG [C82A A111U A120G A145U C150U C169U U176A], the figure is 0.0207.
On to GUGCCUUGCGCCGGGAAACCACGCAAGGGAUGGUGUCAAAUUCGGCGAAACCUAAGCGCCCGCCCGGGCGUAUGGCAACGCAGAGCCAAGCUUCGGCGCCUGCGCCGAUGAAGGUGUAGCGACUAGACGGCACCCACCUAAGGCUAACGAUAUGGUGAAGGCAUAGUCGAGGGAGUGGCGAAAGUCACACAAACCGG [C82A A120C A145U C150A C169G], for which the reverse-splicing fitness came to 0.00904.
As for GUGCCUUGCGCCGGGAAACCACGCAAGGGAUGGUGUCAAAUUCGGCGAAACCUAAGCGCCCGCCCGGGCGUAUGGCAACGCUGAGCCAAGCUUCGGCGCCUGCGCCGAUGGAGGUGUAGUGACUAGACGGCACCCACCUAAGGCCAACGUUAUGGUGAAGGCAUAGUCAAGGGAGCGGCGAAAGUCACACAAACCGG [C82U A111G A120U A145C C150U C169A U176C], the figure is 0.0021.
As for GUGCCUUGCGCCGGGAAACCACGCAAGGGAUGGUGUCAAAUUCGGCGAAACCUAAGCGCCCGCCCGGGCGUAUGGCAACGCGGAGCCAAGCUUCGGCGCCUGCGCCGAUGUAGGUGUAGAGACUAGACGGCACCCACCUAAGGCGAACGGUAUGGUGAAGGCAUAGUCUAGGGAGUGGCGAAAGUCACACAAACCGG [C82G A111U A145G C150G C169U], the figure is 0.00972; as for GUGCCUUGCGCCGGGAAACCACGCAAGGGAUGGUGUCAAAUUCGGCGAAACCUAAGCGCCCGCCCGGGCGUAUGGCAACGCAGAGCCAAGCUUCGGCGCCUGCGCCGAUGCAGGUGUAGUGACUAGACGGCACCCACCUAAGGCCAACGUUAUGGUGAAGGCAUAGUCAAGGGAGUGGCGAAAGUCACACAAACCGG [C82A A111C A120U A145C C150U C169A], 0.00362; as for GUGCCUUGCGCCGGGAAACCACGCAAGGGAUGGUGUCAAAUUCGGCGAAACCUAAGCGCCCGCCCGGGCGUAUGGCAACGCUGAGCCAAGCUUCGGCGCCUGCGCCGAUGCAGGUGUAGUGACUAGACGGCACCCACCUAAGGCCAACGGUAUGGUGAAGGCAUAGUCAAGGGAGCGGCGAAAGUCACACAAACCGG [C82U A111C A120U A145C C150G C169A U176C], 0.00245.
For GUGCCUUGCGCCGGGAAACCACGCAAGGGAUGGUGUCAAAUUCGGCGAAACCUAAGCGCCCGCCCGGGCGUAUGGCAACGCAGAGCCAAGCUUCGGCGCCUGCGCCGAUGAAGGUGUAGAGACUAGACGGCACCCACCUAAGGCUAACGAUAUGGUGAAGGCAUAGUCUAGGGAGAGGCGAAAGUCACACAAACCGG [C82A A145U C150A C169U U176A], the reverse-splicing fitness came out at 0.0139.
As for GUGCCUUGCGCCGGGAAACCACGCAAGGGAUGGUGUCAAAUUCGGCGAAACCUAAGCGCCCGCCCGGGCGUAUGGCAACGCAGAGCCAAGCUUCGGCGCCUGCGCCGAUGGAGGUGUAGCGACUAGACGGCACCCACCUAAGGCGAACGAUAUGGUGAAGGCAUAGUCCAGGGAGUGGCGAAAGUCACACAAACCGG [C82A A111G A120C A145G C150A], the figure is 0.0137.
As for GUGCCUUGCGCCGGGAAACCACGCAAGGGAUGGUGUCAAAUUCGGCGAAACCUAAGCGCCCGCCCGGGCGUAUGGCAACGCCGAGCCAAGCUUCGGCGCCUGCGCCGAUGAAGGUGUAGCGACUAGACGGCACCCACCUAAGGCCAACGAUAUGGUGAAGGCAUAGUCUAGGGAGUGGCGAAAGUCACACAAACCGG [A120C A145C C150A C169U], the figure is 0.0518; as for GUGCCUUGCGCCGGGAAACCACGCAAGGGAUGGUGUCAAAUUCGGCGAAACCUAAGCGCCCGCCCGGGCGUAUGGCAACGCGGAGCCAAGCUUCGGCGCCUGCGCCGAUGAAGGUGUAGCGACUAGACGGCACCCACCUAAGGCAAACGAUAUGGUGAAGGCAUAGUCGAGGGAGCGGCGAAAGUCACACAAACCGG [C82G A120C C150A C169G U176C], 0.0222.
In the case of GUGCCUUGCGCCGGGAAACCACGCAAGGGAUGGUGUCAAAUUCGGCGAAACCUAAGCGCCCGCCCGGGCGUAUGGCAACGCUGAGCCAAGCUUCGGCGCCUGCGCCGAUGUAGGUGUAGAGACUAGACGGCACCCACCUAAGGCAAACGCUAUGGUGAAGGCAUAGUCUAGGGAGUGGCGAAAGUCACACAAACCGG [C82U A111U C169U] it was 0.0122.
Turning to GUGCCUUGCGCCGGGAAACCACGCAAGGGAUGGUGUCAAAUUCGGCGAAACCUAAGCGCCCGCCCGGGCGUAUGGCAACGCGGAGCCAAGCUUCGGCGCCUGCGCCGAUGGAGGUGUAGAGACUAGACGGCACCCACCUAAGGCUAACGAUAUGGUGAAGGCAUAGUCGAGGGAGAGGCGAAAGUCACACAAACCGG [C82G A111G A145U C150A C169G U176A], the reverse-splicing fitness turned out to be 0.0149.
In the case of GUGCCUUGCGCCGGGAAACCACGCAAGGGAUGGUGUCAAAUUCGGCGAAACCUAAGCGCCCGCCCGGGCGUAUGGCAACGCAGAGCCAAGCUUCGGCGCCUGCGCCGAUGGAGGUGUAGGGACUAGACGGCACCCACCUAAGGCGAACGAUAUGGUGAAGGCAUAGUCGAGGGAGAGGCGAAAGUCACACAAACCGG [C82A A111G A120G A145G C150A C169G U176A] it was 0.0194.
